Numbering of substitutions follows the chain as printed. Names may count otherwise.

The chains are these.
T1: human PRLR on cells (endogenous on T47D, T47D#11, MCF7); introduced in HEK293/hPRLR/STAT5-Luc, 293/hPRLR, … (human, UniProt P16471 25-622)
T1 sequence: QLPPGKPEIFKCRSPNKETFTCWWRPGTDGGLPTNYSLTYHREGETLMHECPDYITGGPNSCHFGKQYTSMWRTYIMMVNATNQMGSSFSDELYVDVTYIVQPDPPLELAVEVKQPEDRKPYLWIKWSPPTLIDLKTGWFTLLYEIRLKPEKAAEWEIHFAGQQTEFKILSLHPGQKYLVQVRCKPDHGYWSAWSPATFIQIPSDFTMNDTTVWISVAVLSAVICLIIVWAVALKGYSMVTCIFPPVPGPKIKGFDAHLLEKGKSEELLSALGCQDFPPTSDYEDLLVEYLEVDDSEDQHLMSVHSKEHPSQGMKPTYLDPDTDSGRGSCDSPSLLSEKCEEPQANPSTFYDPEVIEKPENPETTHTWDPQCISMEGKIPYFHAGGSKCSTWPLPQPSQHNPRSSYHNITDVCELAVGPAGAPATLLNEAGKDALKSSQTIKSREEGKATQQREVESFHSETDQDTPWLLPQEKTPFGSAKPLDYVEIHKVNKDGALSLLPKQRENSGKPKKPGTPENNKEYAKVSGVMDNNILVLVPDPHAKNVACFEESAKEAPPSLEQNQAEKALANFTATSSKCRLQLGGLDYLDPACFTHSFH

T2: monkey macaca fascicularis PRLR construct with an HA tag on HEK293/mfPRLR cells (macaca fascicularis, UniProt A0A2K5WXK1 25-619)
T2 construct: stably transfected into HEK293
T2 sequence: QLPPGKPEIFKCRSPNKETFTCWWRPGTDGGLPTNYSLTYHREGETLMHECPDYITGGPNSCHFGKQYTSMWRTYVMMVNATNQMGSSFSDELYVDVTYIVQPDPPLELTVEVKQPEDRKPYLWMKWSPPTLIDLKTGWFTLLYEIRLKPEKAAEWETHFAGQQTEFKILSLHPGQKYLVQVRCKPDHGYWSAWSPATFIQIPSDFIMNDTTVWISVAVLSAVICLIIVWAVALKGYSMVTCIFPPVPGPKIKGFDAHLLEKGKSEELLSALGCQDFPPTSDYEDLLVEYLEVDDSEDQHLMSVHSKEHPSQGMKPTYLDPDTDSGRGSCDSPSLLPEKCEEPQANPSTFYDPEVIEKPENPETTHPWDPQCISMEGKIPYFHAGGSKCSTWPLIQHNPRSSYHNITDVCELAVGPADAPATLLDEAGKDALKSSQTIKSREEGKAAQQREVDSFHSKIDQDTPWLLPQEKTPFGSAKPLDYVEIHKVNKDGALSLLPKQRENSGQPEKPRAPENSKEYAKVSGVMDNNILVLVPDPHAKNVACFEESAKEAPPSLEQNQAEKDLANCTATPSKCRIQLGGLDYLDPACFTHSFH

T3: hPRLR.mmh (soluble monomeric human PRLR) (human)
T3 construct: soluble monomeric PRLR protein
T3 chain: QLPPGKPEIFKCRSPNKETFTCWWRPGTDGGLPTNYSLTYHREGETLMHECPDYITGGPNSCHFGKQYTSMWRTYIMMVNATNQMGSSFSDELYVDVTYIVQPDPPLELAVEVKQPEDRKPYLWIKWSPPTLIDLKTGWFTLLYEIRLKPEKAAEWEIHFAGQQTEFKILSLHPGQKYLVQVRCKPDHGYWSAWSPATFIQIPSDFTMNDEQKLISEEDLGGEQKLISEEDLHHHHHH

T4: hPRLR.mFc (soluble dimeric human PRLR) (human)
T4 construct: dimeric PRLR construct
T4 chain: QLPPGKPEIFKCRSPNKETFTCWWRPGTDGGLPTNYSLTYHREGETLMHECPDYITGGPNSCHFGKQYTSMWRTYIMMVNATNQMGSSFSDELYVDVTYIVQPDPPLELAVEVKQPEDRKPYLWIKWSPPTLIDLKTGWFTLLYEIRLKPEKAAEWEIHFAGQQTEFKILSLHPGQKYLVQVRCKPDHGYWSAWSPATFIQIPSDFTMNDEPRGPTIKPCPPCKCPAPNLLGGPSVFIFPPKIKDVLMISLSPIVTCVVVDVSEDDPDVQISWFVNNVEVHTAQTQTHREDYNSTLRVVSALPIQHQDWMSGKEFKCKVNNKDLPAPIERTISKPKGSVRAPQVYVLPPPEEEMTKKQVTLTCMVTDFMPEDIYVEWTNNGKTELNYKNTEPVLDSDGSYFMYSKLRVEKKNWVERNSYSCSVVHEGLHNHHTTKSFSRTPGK

T5: mfPRLR.mmh (soluble monomeric macaca fascicularis PRLR) (macaca fascicularis)
T5 construct: soluble monomeric PRLR protein; also called macaca fascicularis (mf) PRLR.mmh; monkey PRLR
T5 chain: T3 chain with I76V, A110T, I125M, I158T, T207I

B1: H1H6966N (antibody, human IgG1, V domains shown)
VH: QVQLVQSGAEVQKPGASVKVSCKVSGYTLTALSIHWVRQAPGKGLEWMGNFDPGDGETIHAQKFQGRVTMTGDTSTDTAYMELSSLRSEDTAVYYCVGVTFDYWGQGTLVTVSS
VL: EIVMTQSPATLSVSPGERATLSCRASQSVASNLAWYQQKPGQAPRLLLYGASTRATGIPARFSGSGSGTEFTLTISSLQSEDFALYYCQHYNNWPLTFGGGTKVEIK
notes: also called H2M6966N
B2: H1H6959N2 (antibody, human IgG1, V domains shown)
VH: EVQLVESGGGLVQPGRSLRLSCAASGFTFDDYAMHWVRQAPGKGLEWVSGISWHSGIIGYADSVKGRFTISRDNAKNSLYLQMNSLRTEDAALYYCAKIGSYFYFDSWGQGTLVTVSS
VL: EIVLTQSPGTLSLSPGERATLSCRASQSVSSNYLAWYQQKPGQAPRLLIYGASSRATGIPDRFSGSGSGTDFTLTISRLEPEDFAVYYCQQFGSSGYTFGQGTNLEIK
notes: also called H2M6959N2
B3: H1H6804P (antibody, human IgG1, V domains shown)
VH: QVTLKESGPVLVKPTQTLSLTCTVSGFSLSDAGMGVSWIRQPPGKALEWLAHIFSNDGKSYSTSLKSRLTISKDTSKRQVVLTMTNMDPVDTATYYCARIRTGTYSLYLDYWGQGTLVTVSS
VL: DIQMTQSPSSLSASVGDRVTITCRASQSINSYLNWYQQKPGKAPKLLLYFASSLQSGVPSRFSGSGSGTDFTLTISSLQPEDFASYYCQESYSTPWTFGQGTKVEIK
notes: human IgG1 Fc (H1H)
B4: H1H6960N (antibody, human IgG1, V domains shown)
VH: EVQLVESGGGLVKPGGSLRLSCAASGITFSSYSMNWVRQAPGKGLEWVSSISTRSSLIHYADSVKGRFTISRDNAKNSLYLQMNSLRDEDTAVYYCARWDAAAAFDYWGQGTLVIVSS
VL: DIQLTQSPSFLSASVGDRVTITCWASQGISSYLAWYQQKPGKAPKLLIYVASTLQSGVPSRFSGSGSGTEFTLTISSLQPEDFATYFCQQLNSYPLTFGGGTKVEIK
notes: also called H2M6960N
B5: H1H6797P (antibody, human IgG1, V domains shown)
VH: EVQLVESGGGLVQPGGSLRLSCIVSGFTFSGSWMSWVRQLPGKGLEWVANIKEDGSDSYYVDSVEGRFTISRDNAKSSLYLQMNSLRVDDTAVYFCARARTVPLHYWGQGTLVTVSS
VL: DIQMTQSPSTLSASVGDRVTITCRASQSINIWLAWYQQKPGKAPKLLIYRASYLESGVPSSFAGGGSGTEFTLTISSLQPDDFGTYYCQHYNSYPFTFGQGTKLEIK
notes: human IgG1 Fc (H1H)

For the first experiment, the target named is T1, human PRLR on cells (endogenous on …). Description: cell-based or functional assay.
Turning to B1, the “Percent Blocking at 100 nM Antibody (STAT5-Luc reporter)” value (shortened to “Percent Blocking at 100 nM Antibody”) stood at 54%.
Turning to B2, the “Percent Blocking at 100 nM Antibody” value was determined as 52%.
Consider B3, for which the “IC50 of Blocking 5 nM PRL [M] (STAT5-Luc reporter, HEK293/hPRLR/STAT5-Luc cells)” value was 7.89e-09 M and the “Percent Blocking at 100 nM Antibody” value turned out to be 100%.
For the molecule B4, the “IC50 of Blocking 5 nM PRL [M] (STAT5-Luc reporter, HEK293/hPRLR/STAT5-Luc cells)” value came out at 1.58e-09 M and the “Percent Blocking at 100 nM Antibody” value turned out to be 100%.
For the molecule B5, the “Percent Blocking at 100 nM Antibody” value amounted to 0%.

The target of another experiment is T2, monkey macaca fascicularis PRLR …. Briefly: FACS on HEK293/mfPRLR cells.
Consider B1, for which the “FACS Cell Binding (Fold Above Background)” value came to 18 fold.
For B2, the “FACS Cell Binding (Fold Above Background)” value worked out at 11 fold.
Still for that read-out and setting: as for B3, the figure is 29 fold; as for B4, 23 fold; as for B5, 25 fold.

The target in a further experiment is T3, hPRLR.mmh (soluble monomeric human PRLR). Description: SPR (Biacore), antibody capture, 37 C. On the procedure:
(§1) Measurements were conducted on a T200 Biacore instrument. Kinetic association (kₐ) and dissociation (kd) rate constants were determined by processing and fitting the data to a 1:1 binding model using Scrubber 2.0 curve fitting software.
(In general: Surface plasmon resonance follows binding to a sensor surface in real time, without labels.)
What is called Kd is the equilibrium constant for the complex coming apart. As usually defined, the koff is a measure of how fast the partners let go of each other. As usually defined, the kon is the rate constant with which the complex forms. As to B1, the Kd worked out at 0.607 nM, the “T 1/2” value was 12 min, the off-rate constant (koff) was found to be 0.00096 s⁻¹ and the kon was 1.58e+06 M⁻¹ s⁻¹.
The like results for B2 were, in that order, 681 nM, 0.4 min, 0.0277 s⁻¹ and 40600 M⁻¹ s⁻¹.
The like results for B3 were, in that order, 6.34 nM, 3 min, 0.00385 s⁻¹ and 607000 M⁻¹ s⁻¹.
The like results for B4 were, in that order, 16.2 nM, 5.8 min, 0.00198 s⁻¹ and 122000 M⁻¹ s⁻¹.
Take B5: the Kd is 6.37 nM, the “T 1/2” value stood at 1 min, the koff is 0.00822 s⁻¹ and the kon stood at 1.29e+06 M⁻¹ s⁻¹.

The target of a further experiment is T4, hPRLR.mFc (soluble dimeric human PRLR). Briefly: SPR (Biacore), antibody capture, 37 C. How it is done: as §1
As for B1, the dissociation constant (Kd) was found to be 0.0672 nM, the “T 1/2” value amounted to 91.3 min, the koff is 0.000127 s⁻¹ and the kon came to 1.88e+06 M⁻¹ s⁻¹.
The like results for B2 were, in that order, 4.51 nM, 5 min, 0.0023 s⁻¹ and 509000 M⁻¹ s⁻¹.
The like results for B3 were, in that order, 0.369 nM, 56 min, 0.000205 s⁻¹ and 554000 M⁻¹ s⁻¹.
The like results for B4 were, in that order, 0.5 nM, 78.7 min, 0.000147 s⁻¹ and 294000 M⁻¹ s⁻¹.
As for B5, the affinity, expressed as Kd, was 0.0691 nM; the “T 1/2” value was 93 min; the koff came to 0.000125 s⁻¹; the kon came out at 1.8e+06 M⁻¹ s⁻¹.

For a further experiment, the target named is T5, mfPRLR.mmh (soluble monomeric macaca …). Briefly: SPR (Biacore), antibody capture, 37 C. How it is done:
as §1
As to B1, binding was characterised by a dissociation constant (Kd) of 0.982 nM, the “T 1/2” value amounted to 9.6 min, the off-rate (koff) came out at 0.0012 s⁻¹ and the kon turned out to be 1.22e+06 M⁻¹ s⁻¹.
The like results for B2 were, in that order, 370 nM, 0.7 min, 0.0165 s⁻¹ and 44600 M⁻¹ s⁻¹.
As for B3, the affinity, expressed as Kd, was 9.35 nM; the “T 1/2” value amounted to 3 min; the koff is 0.00426 s⁻¹; the kon is 455000 M⁻¹ s⁻¹.
The like results for B4 were, in that order, 14.9 nM, 9 min, 0.00128 s⁻¹ and 86400 M⁻¹ s⁻¹.
Turning to B5, binding was put at a Kd of 9.9 nM, the “T 1/2” value is 1 min, the koff was 0.00906 s⁻¹ and the kon was 914000 M⁻¹ s⁻¹.

These data come from patent US20180185504A1 (Regeneron, published 2018).
